1 substance from US20180030149A1 can be followed below.

The target in the assay is recombinant human ErbB3 monomeric protein (cleaved rhErbB3) (human) (UniProt P21860). In words: SPR Biacore 37 C; antibody captured on anti-human Fc, cleaved rhErbB3 (monomer) injected. Background: SPR reads the build-up and loss of mass on a sensor chip optically.

For U1-59 (antibody), the Kd (as a rule, the equilibrium constant for the complex coming apart) came out at 0.53 nM.
